The values that follow come from paper PMC6028389, “Dedicated surveillance mechanism controls G-quadruplex forming non-coding RNAs in human mitochondria”.

The term Kd denotes the free concentration of one partner at which half of the binding sites on the other are occupied at equilibrium, for simple one-to-one binding.

The target in this data set is T1, GRSF1 wild type (Homo sapiens, UniProt Q12849 118-480).
T1 sequence: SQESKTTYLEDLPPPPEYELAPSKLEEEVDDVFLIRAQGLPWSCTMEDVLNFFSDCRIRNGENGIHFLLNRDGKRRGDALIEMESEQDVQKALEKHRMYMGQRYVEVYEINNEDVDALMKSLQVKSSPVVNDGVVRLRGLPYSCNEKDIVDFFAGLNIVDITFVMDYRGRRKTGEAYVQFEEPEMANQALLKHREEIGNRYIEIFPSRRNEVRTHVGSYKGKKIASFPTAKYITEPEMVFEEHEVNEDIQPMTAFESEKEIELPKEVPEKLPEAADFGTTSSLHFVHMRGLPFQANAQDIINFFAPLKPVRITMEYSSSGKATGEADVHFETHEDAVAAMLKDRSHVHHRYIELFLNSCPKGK
Put plainly: EMSA; 75 ug/ml heparin; EMSA: 5 nM RNA, 0-2560 nM protein, 10 mM Tris-HCl pH 8.0, 2.5 mM KCl, 30 mM NaCl, 1 mM EDTA, 0.2 mM DTT, 75 ug/ml heparin, 30 min at 30 C; 7% PAGE. To be noted: protein: recombinant; tags: N-terminal 6xHis-SUMO, cleaved by SUMO protease; label: 5'-32P; predicted secondary structure; G4-forming.

B1: tRNA-like (structured_RNA)
RNA: GGGCUGUGACUAGUAUGUUGAGUCCUGUAAGUAGGAGAGUGAUAUUUGAUCAGGAGAACGUGGUUACUAGCACCCA
As for B1, the Kd is about 100 nM.
